Experimental data published in patent US20250163162A1.

T1: IL10Rα/IL2Rγ receptor (human) (UniProt Q13651)
T1 sequence (looked up) 1: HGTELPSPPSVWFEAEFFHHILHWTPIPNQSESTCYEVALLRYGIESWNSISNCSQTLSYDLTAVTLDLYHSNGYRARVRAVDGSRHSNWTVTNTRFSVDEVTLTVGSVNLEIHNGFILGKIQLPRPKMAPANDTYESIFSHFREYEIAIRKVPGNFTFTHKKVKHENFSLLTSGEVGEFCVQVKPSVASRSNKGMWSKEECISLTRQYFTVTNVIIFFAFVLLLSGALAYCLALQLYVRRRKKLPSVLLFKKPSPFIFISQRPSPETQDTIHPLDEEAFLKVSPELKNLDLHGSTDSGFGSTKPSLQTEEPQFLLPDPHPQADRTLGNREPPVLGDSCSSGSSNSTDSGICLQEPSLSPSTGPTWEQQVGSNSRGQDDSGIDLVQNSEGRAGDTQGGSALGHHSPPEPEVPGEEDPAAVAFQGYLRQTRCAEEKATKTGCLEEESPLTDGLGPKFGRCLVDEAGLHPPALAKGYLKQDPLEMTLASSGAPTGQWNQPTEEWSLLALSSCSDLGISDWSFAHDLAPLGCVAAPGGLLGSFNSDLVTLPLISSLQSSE
T1 sequence (looked up) 2: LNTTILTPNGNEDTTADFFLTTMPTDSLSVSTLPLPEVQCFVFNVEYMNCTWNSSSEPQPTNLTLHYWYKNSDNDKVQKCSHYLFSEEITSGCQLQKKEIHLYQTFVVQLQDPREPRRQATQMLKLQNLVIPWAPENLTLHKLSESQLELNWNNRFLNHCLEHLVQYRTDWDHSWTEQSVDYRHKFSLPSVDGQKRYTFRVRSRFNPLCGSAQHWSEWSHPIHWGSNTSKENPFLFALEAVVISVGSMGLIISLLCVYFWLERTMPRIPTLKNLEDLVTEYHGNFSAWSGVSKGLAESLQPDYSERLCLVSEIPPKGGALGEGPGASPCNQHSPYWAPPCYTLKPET

B1: hIL10Ra_VHH14 - hIL2Rg_VHH19, linker GS, tag his (bispecific antibody, not shown: small tags and cut ends)
chain: QVQLQESGGGSVQAGGSLRLSCGASGYTYSSYCMGWFRQVPGKEREGVAVIDSDGSTSYADSVKGRFTISKDNGKNTLYLQMNSLKPEDTAMYYCAADLGHYRPPCGVLYLGMDYWGKGTQVTVSSGSQVQLQESGGGSVQAGGSLRLSCTASGFTFDDREMNWYRQAPGNECELVSTISSDGSTYYADSVKGRFTISQDNAKNTVYLQMDSVKPEDTAVYYCAADFMIAIQAPGAGCWGQGTQVTVSS
B2: hIL10Ra_VHH14 - hIL2Rg_VHH19, linker GGSGGS, tag his (bispecific antibody, not shown: small tags and cut ends)
chain: QVQLQESGGGSVQAGGSLRLSCGASGYTYSSYCMGWFRQVPGKEREGVAVIDSDGSTSYADSVKGRFTISKDNGKNTLYLQMNSLKPEDTAMYYCAADLGHYRPPCGVLYLGMDYWGKGTQVTVSSGGSGGSQVQLQESGGGSVQAGGSLRLSCTASGFTFDDREMNWYRQAPGNECELVSTISSDGSTYYADSVKGRFTISQDNAKNTVYLQMDSVKPEDTAVYYCAADFMIAIQAPGAGCWGQGTQVTVSS

What follows are binders tested against T1, IL10Rα/IL2Rγ receptor (human) (assay: cell-based or functional assay).
B1 gave a Granzyme A secretion, CD8 T cells, at 0 µM of 25200 pg/mL, a Granzyme A secretion, CD8 T cells, at 0.0001 µM of 19900 pg/mL and a Granzyme A secretion, CD8 T cells, at 0.001 µM of 22700 pg/mL. It also gave a Granzyme A secretion, CD8 T cells, at 0.01 µM of 25900 pg/mL, a Granzyme A secretion, CD8 T cells, at 0.1 µM of 26100 pg/mL and a Granzyme A secretion, CD8 T cells, at 1 µM of 27900 pg/mL. The Granzyme A secretion, CD8 T cells, at 10 µM was 28600 pg/mL, the Granzyme A secretion, CD8 T cells, at 100 µM was 28400 pg/mL and the Granzyme B secretion, CD8 T cells, at 0 µM was 77700 pg/mL. The Granzyme B secretion, CD8 T cells, at 0.0001 µM was 49200 pg/mL, the Granzyme B secretion, CD8 T cells, at 0.001 µM was 49400 pg/mL and the Granzyme B secretion, CD8 T cells, at 0.01 µM was 55500 pg/mL. It also gave a Granzyme B secretion, CD8 T cells, at 0.1 µM of 58000 pg/mL, a Granzyme B secretion, CD8 T cells, at 1 µM of 80200 pg/mL and a Granzyme B secretion, CD8 T cells, at 10 µM of 87000 pg/mL. The Granzyme B secretion, CD8 T cells, at 100 µM was 99900 pg/mL, the IFNγ secretion, CD8 T cells, at 0 µM was 122000 pg/mL and the IFNγ secretion, CD8 T cells, at 0.0001 µM was 91700 pg/mL. The IFNγ secretion, CD8 T cells, at 0.001 µM was 105000 pg/mL, the IFNγ secretion, CD8 T cells, at 0.01 µM was 122000 pg/mL and the IFNγ secretion, CD8 T cells, at 0.1 µM was 129000 pg/mL. The IFNγ secretion, CD8 T cells, at 1 µM was 134000 pg/mL, the IFNγ secretion, CD8 T cells, at 10 µM was 143000 pg/mL and the IFNγ secretion, CD8 T cells, at 100 µM was 143000 pg/mL. It also gave an IL-1β secretion, LPS treated monocytes, at 0 µM of 6240 pg/mL, an IL-1β secretion, LPS treated monocytes, at 0 µM (LPS only) of 6880 pg/mL and an IL-1β secretion, LPS treated monocytes, at 0.0001 µM of 5960 pg/mL. It also gave an IL-1β secretion, LPS treated monocytes, at 0.001 µM of 6270 pg/mL, an IL-1β secretion, LPS treated monocytes, at 0.01 µM of 5060 pg/mL and an IL-1β secretion, LPS treated monocytes, at 0.1 µM of 6590 pg/mL. It also gave an IL-1β secretion, LPS treated monocytes, at 1 µM of 5760 pg/mL, an IL-1β secretion, LPS treated monocytes, at 10 µM of 6710 pg/mL and an IL-1β secretion, LPS treated monocytes, at 100 µM of 8140 pg/mL. The IL-9 secretion, CD8 T cells, at 0 µM was 1350 pg/mL, the IL-9 secretion, CD8 T cells, at 0.0001 µM was 918 pg/mL and the IL-9 secretion, CD8 T cells, at 0.001 µM was 998 pg/mL. It also gave an IL-9 secretion, CD8 T cells, at 0.01 µM of 1070 pg/mL, an IL-9 secretion, CD8 T cells, at 0.1 µM of 1230 pg/mL and an IL-9 secretion, CD8 T cells, at 1 µM of 1610 pg/mL. It also gave an IL-9 secretion, CD8 T cells, at 10 µM of 1730 pg/mL and an IL-9 secretion, CD8 T cells, at 100 µM of 1880 pg/mL.
In the case of B2, the Granzyme A secretion, CD8 T cells, at 0 µM is reported as 25200 pg/mL, the Granzyme A secretion, CD8 T cells, at 0.0001 µM is reported as 20800 pg/mL and the Granzyme A secretion, CD8 T cells, at 0.001 µM is reported as 23000 pg/mL. For the same binder, the Granzyme A secretion, CD8 T cells, at 0.01 µM was 25300 pg/mL, the Granzyme A secretion, CD8 T cells, at 0.1 µM was 27100 pg/mL and the Granzyme A secretion, CD8 T cells, at 1 µM was 28700 pg/mL. The Granzyme A secretion, CD8 T cells, at 10 µM was 29400 pg/mL, the Granzyme A secretion, CD8 T cells, at 100 µM was 25600 pg/mL and the Granzyme B secretion, CD8 T cells, at 0 µM was 77700 pg/mL. The Granzyme B secretion, CD8 T cells, at 0.0001 µM was 54500 pg/mL, the Granzyme B secretion, CD8 T cells, at 0.001 µM was 50900 pg/mL and the Granzyme B secretion, CD8 T cells, at 0.01 µM was 54100 pg/mL. For the same binder, the Granzyme B secretion, CD8 T cells, at 0.1 µM was 62300 pg/mL, the Granzyme B secretion, CD8 T cells, at 1 µM was 77600 pg/mL and the Granzyme B secretion, CD8 T cells, at 10 µM was 90000 pg/mL. For the same binder, the Granzyme B secretion, CD8 T cells, at 100 µM was 77900 pg/mL, the IFNγ secretion, CD8 T cells, at 0 µM was 122000 pg/mL and the IFNγ secretion, CD8 T cells, at 0.0001 µM was 94700 pg/mL. For the same binder, the IFNγ secretion, CD8 T cells, at 0.001 µM was 110000 pg/mL, the IFNγ secretion, CD8 T cells, at 0.01 µM was 117000 pg/mL and the IFNγ secretion, CD8 T cells, at 0.1 µM was 122000 pg/mL. The IFNγ secretion, CD8 T cells, at 1 µM was 144000 pg/mL, the IFNγ secretion, CD8 T cells, at 10 µM was 149000 pg/mL and the IFNγ secretion, CD8 T cells, at 100 µM was 127000 pg/mL. For the same binder, the IL-1β secretion, LPS treated monocytes, at 0 µM was 6240 pg/mL, the IL-1β secretion, LPS treated monocytes, at 0 µM (LPS only) was 6880 pg/mL and the IL-1β secretion, LPS treated monocytes, at 0.0001 µM was 6290 pg/mL. The IL-1β secretion, LPS treated monocytes, at 0.001 µM was 5850 pg/mL, the IL-1β secretion, LPS treated monocytes, at 0.01 µM was 6100 pg/mL and the IL-1β secretion, LPS treated monocytes, at 0.1 µM was 4960 pg/mL. For the same binder, the IL-1β secretion, LPS treated monocytes, at 1 µM was 5780 pg/mL, the IL-1β secretion, LPS treated monocytes, at 10 µM was 6420 pg/mL and the IL-1β secretion, LPS treated monocytes, at 100 µM was 7840 pg/mL. For the same binder, the IL-9 secretion, CD8 T cells, at 0 µM was 1350 pg/mL, the IL-9 secretion, CD8 T cells, at 0.0001 µM was 951 pg/mL and the IL-9 secretion, CD8 T cells, at 0.001 µM was 1010 pg/mL. The IL-9 secretion, CD8 T cells, at 0.01 µM was 1140 pg/mL, the IL-9 secretion, CD8 T cells, at 0.1 µM was 1090 pg/mL and the IL-9 secretion, CD8 T cells, at 1 µM was 1440 pg/mL. The IL-9 secretion, CD8 T cells, at 10 µM was 1600 pg/mL and the IL-9 secretion, CD8 T cells, at 100 µM was 1700 pg/mL.
